Patent publication US9505841B2, “Use of an anti-Ang2 antibody” (Samsung Electronics Co., Ltd., priority 2013, dated 2016)

What was measured:
Akt, eNOS and 42/44 = test: Phosphorylation of Tie2 downstream signaling proteins in HUVEC (immunoblot); assay type: cell-based, human
Method: To see whether antibody 10D6 induces the activation of the downstream signaling of a Tie2 receptor as well as the activation of the Tie2 receptor itself, the phosphorylation degrees of proteins participating in the downstream signaling when Ang2 alone or Ang2 and antibody 10D6 was treated were tested using immune blotting.
Specifically, HUVEC (ATCC) cells (1×10^6) were cultured in a 6-well culture dish using EGM-2 (Lonza) media at 37° C. and when they reached 80˜90% confluency, the media were replaced with serum-free media (Lonza) and cultured at 37° C. for 6 to 16 hours. The dish was washed once with PBS, and the cultured cells were treated with a mixture prepared by mixing 60 nM of the Ang2 antibody (10D6) with 40 nM of Ang2 protein (R&D systems) and letting them stand for 20 min. and further cultured for 30 min. For comparison, groups in which Ang1 (R&D systems) 4 nM, Ang2 (R&D systems) 40 nM, and Ang2 (R&D systems) 40 nM+anti-Ang2 antibody (Regeneron) 60 nM were treated respectively were prepared.
The cells were washed using PBS, treated with a lysis buffer (Roche), collected to a tube to be dissolved at 4° C. for 30 min. and then, centrifuged at 13,000 rpm for 15 min. to measure a supernatant. A sample buffer (Invitrogen) mixed with a reducing agent was added to 25 ug of a cell lysate, which was boiled at 95° C. for 5 min., and then, applied to NuPAGE Novex 4-12% Bis-Tris gel (Invitrogen) and transferred onto Nitrocellulose membrane (Invitrogen).
To see the presence of the phosphorylation of Akt, eNOS and 42/44 involved in the downstream signaling, the blots were blocked with PBST mixed with 3% (v/v) skim milk (Sigma) for 30 min. and then treated with an anti pAkt antibody, anti p-eNOS antibody, and anti p-42/44 antibody (all of them; cell signaling). The blots were reacted in a stripping buffer (Thermo) for 15 min. and then blocked again to identify Akt, eNOS, and 42/44 using an anti Akt antibody, anti eNOS antibody, and anti 42/44 antibody (all of them; cell signaling).

[1] = system: Vascular endothelial cells (HUVEC); test: BrdU proliferation assay, vascular endothelial cells; assay type: cell-based, human; conditions: 2 ug/ml Ang2 with 10 ug/ml antibody; 3 days
Method: The measurement assay of the proliferation of vascular and lymphatic endothelial cells was conducted using a BrdU assay kit (Roche) Cell. Vascular endothelial cells of P3˜P8 (HUVEC, ATCC) or lymphatic endothelial cells (Lonza) were placed in a collagen-coated 96-well plate (BD Bioscience) at 3000˜5000 cells/well and cultured in EGM-2 media (Lonza) for 16˜24 hours. A mixture of 2 ug/ml of Ang2 (R&D systems) and 10 ug/ml of antibody 10D6 in 2% EBM media was added to the 96-well plate washed with PBS, which was then cultured for 3 days.
For efficiency comparison, an anti-Ang2 antibody (MEDI: Medlmmune Co.) was used. For a BrdU assay, 10 ul of BrdU solution diluted at 1:1,000 was added to each well of the plate to label the cells. The cells were cultured for 1 hour and after the removal of the culture solution, 100 ul of Fixation/Denaturation solution (Roche) was added to each well and then, removed after 30-min wait. An anti-BrdU antibody (Roche) conjugated with peroxidase was diluted in a dilution buffer (Roche) at 1:100, added to each well to react for 1 hour and then, washed four times using a washing buffer (Roche). 100 ul of a TMB substrate was added thereto to react and then, absorption was measured at 450 nm using a Microplate reader (Perkin Elmer).

tumor blood vessels = test: Lectin perfusion assay in LLC tumors; assay type: in vivo, mouse; conditions: 10 mg/kg i.p., five administrations, compared to Fc- or 4H10-treated group
Method: To see the functions of tumor blood vessels treated with antibody 10D6, perfusion level of the blood vessel was examined by Lectin perfusion assay. Referring to the method described in Example 14, LLC tumor cells were subcutaneously injected into mice. When the size of tumors reached 50˜100 mm^3, anti-Ang2 antibody 10D6 was injected at the concentration of 10 mg/kg via an intraperitoneal injection three times a week and the size of the tumors was measured. For comparison, the same experiment was performed to a control group treated with Fc of IgG1 and a comparative group treated with antibody 4H10 (refer to Example 3).
After administering the antibody five-times, the mice were injected with FITC-Lectin (Vector laboratory) via tail vein, and after 20 minutes, subjected to perfusion fixation. Tumor frozen sections were obtained and immunostained using hamster anti-CD31 antibody (1:200, Millipore). Images were obtained using LSM5 confocal microscope (Zeiss), and Lectin+ area/CD31+ area was quantified using ImageJ software (http://rsb.info.nih.gov/ij).

LLC tumor tissues = test: H&E staining of necrotic region in LLC tumors; assay type: in vivo, mouse; conditions: 10 mg/kg i.p., five administrations, compared to Fc- or 4H10-treated group
Method: To see the effects of the structurally and functionally normalized blood vessels in tumor by treatment of antibody 10D6 on the tumor tissues, referring to the method of Example 14, LLC tumor cells were subcutaneously injected into mice. When the size of tumors reached 50˜100 mm^3, anti-Ang2 antibody 10D6 was injected at the concentration of 10 mg/kg via an intraperitoneal injection three times a week and the size of the tumors was measured. After administering the antibody five-times, the tumor sections were stained with H&E according to standard protocol, and then, the Eosin+ cell necrotic region in tumor tissues was confirmed. For comparison, the same experiment was performed to a control group treated with Fc of IgG1 and a comparative group treated with antibody 4H10 (refer to Example 3).

[2] = system: blood vessels of normal mice; test: Vascular toxicity in normal mice; assay type: in vivo, mouse; conditions: C57BL/6, 5 mg/kg i.p. solely or with 20 ug Ang2, every three days, 6 times
Method: The vascular toxicity of antibody 10D6 was tested.
In particular, 5 mg/kg of antibody 10D6 was administered to normal 6-week old C57BL/6 mice (Jackson Laboratory) solely or combined with 20 ug of Ang2 via an intraperitoneal injection every three days a total of 6 times, and then, the weight of the mice was measured. After 20 days, various tissues including thyroid, parathyroid, and adrenal gland were removed from the mice, and frozen sections were obtained therefrom. The frozen sections were immunostained using hamster anti-CD31 antibody (1:200, Millipore), and the changes were observed. A group administered with 20 ug of Ang2 solely was used for comparison.

B1: 10D6: mouse anti-Ang2 monoclonal antibody from hybridoma KCLRF-BP-00295; heavy chain variable region SEQ ID NO: 7, light chain variable region SEQ ID NO: 9 (antibody, V domains shown)
VH: DVQLQESGPGLVKPSQSLSLTCTVTGYSITSDYAWNWIRQFPGNKLEWMGYINYSGNTDYNPSLKSRSSITRDTSKNQFFLQLNSVTTGDTATYYCARGNFEGAMDYWGQGTSVTVSS
VL: SIVMTQTPKFLLVSAGDRVTITCKASQSVSNDVAWYQQKPGQSPKLLIYYASNRYPGVPDRFTGSGYGTDFTFTISTVQAEDLAVYFCQQDYSSPWTFGGGTKLEIK
modifications: Synthetic (Heavy chain variable region of an anti-Ang2 antibody); Synthetic (Light chain variable region of anti-Ang2 antibody)
downstream signaling (phosphorylation of Akt, eNOS, 42/44) compared to Ang2 sole-treatment and Ang2 + RG antibody (Akt, eNOS and 42/44; 60 nM 10D6 + 40 nM Ang2, or Ang1 4 nM alone, 30 min): strongly induced
downstream signaling effects relative to Ang1 sole-treatment group (Akt, eNOS and 42/44; 60 nM 10D6 + 40 nM Ang2 vs Ang1 4 nM): at least equal to those in the Ang1 sole-treatment group
growth of vascular endothelial cells (BrdU) [1]: increased
percentage of Lectin+ area in CD31+ area (tumor blood vessels): increased
perfusion function of tumor blood vessels (tumor blood vessels): enhanced
cell necrotic region in tumor tissues (LLC tumor tissues): smaller
weight of normal mice [2]: neither abnormal weight loss/gain
vascular toxicity (morphology of blood vessels, CD31 staining) ([2]; after 20 days): no vascular toxicity
